Measurements: the DeepSol protein solubility set

Assay: soluble on expression in E. coli; label from the status in PepcDB or PDB records

Row | Sequence | soluble on expression in E. coli
1 | MSLLTVVQDQQSSNDDSGVGRSLLDEIVRDGARQMLAAALAAEVAAYIEQFAEHLDEHGRRLVVRNGYHHERDVLTAAGAVTVTAPRVNDRRVDAETGERQRFSSAILPAWSRKSPQMTEVLPLLYLHGLSSGDFSAALEQFLGTGAGLSASKITRLTAQWQDEAKAFADRDLSGTDFVYLWVDGIHLKVRLEQQKLCLLVMIGVRADGRKELVALTDGFRESTESWADLLRSCRRRGMTAPVLAVGDEALGFWKALREVFPDTREQRCWFHKQANVLAALPKSAHPGATAAMREIYNAEDIDKAQVAIKAFEVDYGAKYPKAVAKIVDDADVLLEFYRYPAEHWIHLRTTNPIESTFATVRLRTKVTKGPGSRAAGIAMAYKLIDAAQARWRAVNAPHLVALVRAGAVFHKGKLLEREGHHHHHH | not soluble
2 | MDRFENMNAFVRVVETGSISAAADRMDIAKSVVSRRLKELEEHLGVELFHRTTRQMNLTDSGRAFYQQSVRILADVLEAEHATSQFHGRLKGHLKVAVPLSFGLMHLGAAISTFLQTHPDIEFDLDFNDRQVDLLAEGFDLAIRIANLPDSSLIARRLAPIQAVMCASPAYLERMGTPQAPEELIRHRCLVYNLVSHSDNWNVYGTTGELIKTRIIPYLKASNGEFLRDAAVDGLGIVLLPTFIVYREIQRGALIPILTGYHYAQLAAYAIYPQTRHLSQRVRAFVDFLSQRFEGMPYWDACLNQ | not soluble
3 | MTKTAFLFAGQGAQYLGMGRDFYDQYPIVKETIDRASQVLGYDLRYLIDTEEDKLNQTRYTQPAILATSVAIYRLLQEKGYQPDMVAGLSLGEYSALVASGALDFEDAVALVAKRGAYMEEAAPADSGKMVAVLNTPVEVIEEACQKASELGVVTPANYNTPAQIVIAGEVVAVDRAVELLQEAGAKRLIPLKVSGPFHTSLLEPASQKLAETLAQVSFSDFTCPLVGNTEAAVMQKEDIAQLLTRQVKEPVRFYESIGVMQEAGISNFIEIGPGKVLSGFVKKIDQTAHLAHVEDQASLVALLEKL | soluble
4 | MGSDKIHHHHHHMVKIAVLGLGRVGLRAAYNLASRGFDVLGLDASNDAVSRARSLGLEARLYDVEGRKAGEYLRGQRVVAAFIALPYPVASRAVAHLSSAGIPVVVASIKPLRIDPGVVRAPILTEVGVSPGLSNVILYSMAAETGGGVSARVYVGSFGAREDGLLSHASTWRVEEMLEQYVTPAKLIQDGSEAVADPLDPSLWMEYSDPEHGVLECFPSQGLAGFISRRGSLFKELMECSLRRRGHLKVVLTMRGLGLLDSTPLKVSGCIVRPFDMAVKLVETRYPPDVGDVAVFTVEARRGGRWETLARASLRHGGGWSASSKMVGGASSAFAEVFAAEGLSEEEPGIIYPEDLYELGLAEKLLSLLPSHGVSLEVG | not soluble
5 | MRRRSNRQYVDLSYFRETADALLFDVETNSREFTNEINTVKEEKAKWDERTPQGYTAKPISFEGADIWCSWICTVPGPRGSPWEGGEYEVSVNFHKWPIIPPICEFKTPLHHPNVDLRGSIYLKMLEQEHWSSETSLKKLLREISNLLATPDLTQAANIEAWMEYENQRENYEAKARAYAWTVNPNAVGYMEVSENSGIQRETAKAKLAVQNGAMESDEDDDDLPIDIEN | not soluble
6 | MSQPAYRLFNVELKRREQLSPALTRFVFGGPEVAEMKTLAADQRIKIFFPDASGQPPSLPGGSEWYQAYRSVEPARRPPMRTYTIRALRAEQEEVDVEFVLHGENGPASAWATHARIGDRLQLAAPNRQYGDDPGGYEWKPPAGVRHILLIADETALPAVAGILEELAGETEPPVVEAFLEVPGEADILDLPAIPAARLHWLPRHQAGIHSRNGERMIEAARQARLPEREVAGGAAQELEDIDIDEEILWELASPESGSFYAWVAGESAAVMAIRRYLVQERGIDKRHLTLMGYWRLGKVFD | not soluble
7 | MDLICMYVFKGEESFGESIDVYGDYLIVKVGTEFLAVPKKSIKSVEDGRIVIGEFDEEEARELGRKWLEEKSKPVTLEELKSYGFGEEGE | not soluble
8 | MSQTVHFQGNPVTVANVIPQAGSKAQAFTLVAKDLSDVSLSQYAGKRKVLNIFPSIDTGVCAASVRKFNQLATEVENTVVLCVSADLPFAQSRFCGAEGLSNVITLSTLRNNEFLKNYGVEIVDGPLKGLAARAVIVLDENDNVIFSQLVDEITHEPDYDAALNVLKA | not soluble
9 | MGSDKIHHHHHHMFEGPIIDARIKSIASGFRAVSVYVDATSAEEGRFDPRLLGEACDCALADGPAWAEAHLASWSDAYAVFGAKPNRTPCSAQALRKRVLKDGTLSTINPIVDLYNAISLKYAVPVGGENFDAYVGRPHLTVADGSETFDTMVNGEAVNDPPLPGEVIWRDDIGVTCRRWNWRQGTRTRLKTLTGRMWFVLEALETMPDDALAEATDAMVGGLNALMPGCKIASQEIAIAG | not soluble
10 | MESVESAARDYRETLAELRNNNKTQINLLTILADDFKKAAPQIVEVIERHLTTCSPSQKLLVMYVCDSILKNVKKPNDYDALFARKIVSMFEHAFRQGDERIRTSLYRIRVTWASTTLFMPSKLYELDMKINKLDPNWPISNPQTGRALRDDPQVMAPSQSRPAGNATSPAASTSTNRVFVNPKFIGSSTPGAASASKTVVEKTKSPGTVNKEKQVKKEPKQDPLDKLLPSSSASKTSSSPAGLKRKSAPSEHPNAPIRKKPQQPPKPQTAIDEDLRSISLTKKPPVPSAQDQDFRPKTLKPTSVIGSHAFAPVAAPIRPMIPVPPPVSVAPFVPAPPLSSAPPFQHPQQHHPQLPPPPVHQGMGRGYHHNSPPQDPAPIVPVQAPPPQQHLPAPENVYSSEQPKLDVPANNRIFVDGKAYEVMFVDDTAVIERGGAPHRIYFAGPPRNLVIDGIPHLLQFDTPTQIDILGSKHMVKFGAPSRELYIGGHPFKGQFGGPPIIATINGRRHEIRLTGSAPEVRIEPEPAYHLTHFLHKMREEKKIEIASEKPEKKEDWLSYLKNLRTRNILPAPARSPSSPRNQTPPPANLPIPGMNNAGQRGGYHNRHQPQQNARWGGANKQQNIPPPPSDPSPIGSGVEKRSAPPAAITDFNIRLLQIRYDSVVDALITKRADACKFCGMRLDDSQGKSKEWQDHMDWHVKQNLARHGSNNSAAVPYRQWYPSTSTWLTPRASDETNEQEADKPEEPLPGVASSGVKTKECSVCGEKFDEYYDDDEETWRLRDTVNVHGKIVHSACASDAARSLDNSSFFNDSDIKKEEPFD | not soluble
11 | MGSDKIHHHHHHMGIEAAVGAWNNTPRGDFAYKGTNLDIKDELKYDDETRLMGRVKIETPLFFPNLYLMATPMEFDGQGSKSGTFQFGDVTFDGTVPFTSELKLDHYDLGLYWGIPLLKTATAGVVNVDLGIDARLIDLKAEVVQGGVTESKSLVVGVPMIYAGVQVRPLSWFAAEGEARGMAYGDNRYYDLIARGKLILFDHLFAAAGYRYEKIEIDESDIKADVDFGGPFAEVGFQF | not soluble
12 | MSSEVEPPQKKKQPWLPDYIVENCLAHISRSYYPKLSLVSSPFALSSYPKSSTKRDIASTTEEYFFHVCLQLPKSPLPTWYTLWIKPDQIEKKKKINTFTGNTRLVQIPSSYHYPFDQVFIFNLYGAMRSSKAMVRPPSYGLVSMF | not soluble
13 | MCNTPTYCDLGKAAKDVFNKGYGFGMVKIDLKTKSCSGVEFSTSGHAYTDTGKASGNLETKYKVCNYGLTFTQKWNTDNTLGTEISWENKLAEGLKLTLDTIFVPNTGKKSGKLKASYKRDCFSVGSNVDIDFSGPTIYGWAVLAFEGWLAGYQMSFDTAKSKLSQNNFALGYKAADFQLHTHVNDGTEFGGSIYQKVNEKIETSINLAWTAGSNNTRFGIAAKYMLDCRTSLSAKVNNASLIGLGYTQTLRPGVKLTLSALIDGKNFSAGGHKVGLGFELEALEHHHHHH | soluble
14 | MSHDSSGEYMVSQVLKCVKFKDLVRKALNAEAKFSPASVEYDKRRHSKYAYLVHWRGYDWKERTWEPEENLENCEELQKFKERNNMSLDHLTFEHHYEHSTWRRISLASEKCVTNRYLKTDDEIEEKRARKKAKLEEQNRKEQAKNPHASAETEPAVKKKKIEGVGSRIPKISDREGAGTSGQSSSNVSTPGITPLDNKTPRMQKKSNEIGQASTPECAIATLSIGTPQPSIIDSTYDQSDIANGSTSPQPQPVFKRKMNGQDVSDYSVHQGGTFSDGSAIEGSTSRESEDMDCTQETKKALQKAIESAREECEEIEKTIKKYPLQVTSSRVVTGFSPALTLRKFRRCQSLEMLSDHFNNNAEMEIFGKNFENSVRLDADAKPVVIKIYPQEQELFLTKQRKMPSLEMEQLVYENLVKENANNIKIAMHNIRPDKNFAQLLECLSHAYSKDDNIRFETIFNEGFPPSDEYDCRRFQAIVFLIAYCKHRLWKADPKGMAIVEASDAVKEGEIREQQIICSDRHRKCAWLQVFLKLMPDRFKFLETSGQCYHGWEGDDGPFRDDVFFHCMKYGAECQKRLFLDFNKPIGIQEETVGDYSVDAMHLLAVQYGNIQRIPSYLSIGGLDINALATHLPTKRVMRLQHYLKVWIEAHKSETTATEDRKKYYRYLNDVIRLTSESLEIFLENEVTKMIFSRMGGRWKIRMDLTYPHILRCSPLSNKSNGGDGTHQVLSCLFYPEAIGYRDGLENSKGADTEKIDELKTSQKRYKKMIEEGKGRLVLALYRIDIEFRCNLAEKEQFSLPKFTLIESDDGFKIEKLTLLRQTEGLTCYEADIGMFEMTPFSSPGCRYFGISDKAHEKDLVVPGNAHIEMRAEVDQPISFVTQLFFIKKNV | not soluble
15 | MGHHHHHHSHMCSSGGPVDRAPDSSKDGKNHHKTMGHYNHNDSLRKTQINSLKNSVACPGAQKAITSSEAVDRFMPRTTQLQERKRRREDDRKLGTFLQTNPTGNEIMIGPLLPDISKVDMHDDSLNTTANLIRHKLKEVISSVPKPPEDKPEDVHTSRPLKQRRRI | soluble
16 | MGSDKIHHHHHHMIEITHGDILRADTEAIVNTVNCVGVMGRGIALQFKKAWPDNFKAYAAACNSKNVQPGKMFIFETGQLANPRFIINFPTKRHWKGASRIEDIESGLVALVADIQRLGIKSIAIPPLGAGLGGLDWLVVRDKIEAAMQPLTDVQILLYEPAGAPQNDRIAKQKEVPKMTAGRAVLIELMQRYLKGLLDPTVSLLEVHKLLYFMQEAGEPLRLKYEKAHYGPYAQNLRHVLNAIEGHFISGYADGGDKPEKELRLVPGAVKEAQEFLEQHPDTRERFTKVSELVEGFESPLGLELLATVHWLNKYEHVRSTDQVIESVHSWNTRKQLFTARQITIAEKVLARQNWLSA | not soluble
17 | MSLVFYGRRLTEAIEVLKQSKISIMLANKGPLIYYRRTGGFPEGPVEKALGLSSLDDLVICPVHSVQPEVSTYLLLRLRTPFIIPPRSTATIYLKAPVAAGVYVTANGEQRLVDYFGPSVFKYALYGPPAVGQVCRFYITDIFSEVPEAGPWEAVTKVVVENTSDNYVEIRNVIYPIVYAQFYIDNMGNAYLETSKLSITSSNVGVVELRNEPPISGLPTCLKTEGGLPLPFLKPAGEKIAKFLMEFGLEGHHHHHH | not soluble
18 | MSLAHEMRDGSSRGLRIDFHVHLGVYADHKPWVTEWIKQSQPDPGEYDAYIERYSDPGAFEELLAAEGVDYACVLAELCPITTGICSNEQVEAFCKGRKRLIPFCSINPHLTTDLGGELRRLVETEGFRGLKLYPSYQHYYLNDPRVYPLYQAAQELGIPVLIHTGSSVFKGTRIKYCDPIHLDDVANDFPSLNLVMAHSGRGFWYDRAFFLSKLHSNLYMEVSGLPPSKLMTYFPELARNTDKVIFGSDWPGASQIKRNMDAIGALPLPAEGVEKILGGNAARLLNFEGHHHHHH | soluble
19 | GPGSMASKKQADGSKDIGDAAWREKLTTQEYRVLRQKATDPPFGAYNTHFETGTYHCAGCGTLLYKSSMKFPCECGWPAFFDCVPLAVREEPDSDGVRTEILCNACGGHLGHVFRGEGFNNPPPNERHCVNGTAIRFQSEK | soluble
